From PMC5899157, “Directed evolution of broadly crossreactive chemokine-blocking antibodies efficacious in arthritis” (Nature Communications, 2018) come the findings set out here.

Experiment [1] deals with T1, mCXCL1 fused to the N-terminus of mouse serum albumin (mouse, UniProt P12850).
T1 construct: murine CXCL1, active protein form; also called ^NCXCL-SA^C; source: HEK293 (suspension-adapted), transient transfection, purified (Ni Sepharose excel, SEC); not shown: mouse serum albumin, C-terminal, kept; His6, C-terminal, kept
The experiment can be described thus: flow cytometry on cells; scFv displayed on yeast (Aga2p fusion) titrated with soluble CXCL-SA fusions bearing His6, 10 pM to 2 μM, overnight at 4 °C, PBSA washes, anti-His6 detection, binding/display MFI. The conditions noted are these: one partner purified. A general note: Flow cytometry measures light scatter and fluorescence of single cells or particles in a stream.

Experiment [2] concerns the target T2, hCXCL1 fused to the N-terminus of mouse serum albumin (human, UniProt P09341).
T2 construct: human CXCL1, active protein form; CXCL-SA fusions eluted as dimers to tetramers on SEC; also called ^NCXCL-SA^C; source: HEK293 (suspension-adapted), transient transfection, purified (Ni Sepharose excel, SEC); not shown: mouse serum albumin, C-terminal, kept; His6, C-terminal, kept
The experiment is described as above. The conditions noted are these: one partner purified.

In experiment [3] the target is T3, wild-type hCXCL1 displayed on the surface of yeast as N-terminal fusion of Aga2p (human, UniProt P09341).
T3 construct: human CXCL1, active processed form; Construct CXCL-(G3)-c-myc-Aga2p; also called hCXCL1^WT; ^NhCXCL1^WT-Aga2p^C; not shown: c-myc, C-terminal, kept; Aga2p, C-terminal, kept
Nature of the experiment: flow cytometry on cells; CXC chemokine displayed on yeast (CXCL-Aga2p) titrated with soluble SA-antibody fusions bearing His6, 10 pM to 20 μM, overnight at 4 °C, PBSA washes, anti-His6 detection, binding/display MFI. Conditions: one partner purified.

The target in experiment [4] is T4, mCXCL3 displayed on the surface of yeast as N-terminal fusion of Aga2p (mouse, UniProt Q6W5C0).
T4 construct: murine CXCL3, active processed form; Construct CXCL-(G3)-c-myc-Aga2p; also called ^NCXCL-Aga2p^C; not shown: c-myc, C-terminal, kept; Aga2p, C-terminal, kept
The experiment is described as above. Conditions: one partner purified.

In experiment [5] the target is T5, biotinylated hCXCL8 (^NCXCL-G2-AviTag^C) (human, UniProt P10145, biotin on the defined lysine of the AviTag (BirA)).
T5 construct: human CXCL8, active form; Which processed form of CXCL8 (72 or 77 residues) was made is only in Supplementary Data 1; not shown: AviTag, C-terminal, kept; Fc (murine IgG2 CH2 and CH3), N-terminal, cleaved; His6, N-terminal, cleaved
The experiment can be described thus: flow cytometry on cells; competition: biotinylated chemokine at its EC50 with varying antagonist (0.3 nM to 3 μM; 0.003 to 30 μM for SA157*) on HEK293 cells expressing CXCR1 or CXCR2; the antagonist and the chemokine. The conditions noted are these: both partners purified.

In experiment [6] the target is T6, mCXCL5 displayed on the surface of yeast as N-terminal fusion of Aga2p (mouse, UniProt P50228).
T6 construct: murine CXCL5, active processed form; Construct CXCL-(G3)-c-myc-Aga2p; also called ^NCXCL-Aga2p^C; not shown: c-myc, C-terminal, kept; Aga2p, C-terminal, kept
Nature of the experiment: flow cytometry on cells; CXC chemokine displayed on yeast (CXCL-Aga2p) titrated with soluble SA-antibody fusions bearing His6, 10 pM to 20 μM, overnight at 4 °C, PBSA washes, anti-His6 detection, binding/display MFI. The conditions noted are these: one partner purified.

In experiment [7] the target is T7, mCXCL2 displayed on the surface of yeast as N-terminal fusion of Aga2p (mouse, UniProt P10889).
T7 construct: murine CXCL2, active processed form; Construct CXCL-(G3)-c-myc-Aga2p; also called ^NCXCL-Aga2p^C; not shown: c-myc, C-terminal, kept; Aga2p, C-terminal, kept
The description is as above. The conditions noted are these: one partner purified.

In experiment [8] the target is T8, mCXCL1 displayed on the surface of yeast as N-terminal fusion of Aga2p (mouse, UniProt P12850).
T8 construct: murine CXCL1, active processed form; Construct CXCL-(G3)-c-myc-Aga2p; also called ^NCXCL-Aga2p^C; not shown: c-myc, C-terminal, kept; Aga2p, C-terminal, kept
The experiment is described as above. The conditions noted are these: one partner purified.

For experiment [9], the target named is T9, chemotactic factor C5a (Homo sapiens (assumed; species not …, UniProt P01031).
T9 construct: C5a, the chemotactic fragment cut from complement C5; Detected with streptavidin or anti-His6
Nature of the experiment: flow cytometry on cells; polyreactivity test: scFv displayed on yeast, single concentration (2 μM) of soluble protein, detection with streptavidin or anti-His6. Conditions: one partner purified.

Experiment [10] addresses T10, CCL28 (human, UniProt Q9NRJ3).
T10 construct: CC chemokine CCL28; Detected with streptavidin or anti-His6
Described as above. Conditions: one partner purified.

The target of experiment [11] is T11, CCL22 (human, UniProt O00626).
T11 construct: CC chemokine CCL22; Detected with streptavidin or anti-His6
The experiment is described as above. The conditions noted are these: one partner purified.

Experiment [12] deals with T12, CCL20 (Homo sapiens (assumed; species not …, UniProt P78556).
T12 construct: CC chemokine CCL20; Detected with streptavidin or anti-His6
Described as above. The conditions noted are these: one partner purified.

B1: CK129 single-chain variable antibody fragment, displayed on yeast (scFv, V domains shown)
VH: EVQLVESGGGLVQPGGSLRLSCAASGFNISSYGSMHWVRQAPGKGLEWVASIYPYSSSTYYADSVKGRFTISADTSKNTAYLQMNSLRAEDTAVYYCARGYGPWYAYSYFALDYWGQGTLVTVSS
VL: DIQMTQSPSPLSASVGDRVTITCRASQYGGYVAWYQQKPGKAPKLLIYGASLLYSGVPSRFSGGRSGTDFTLTISSLQPEDFATYYCQRGHALITFGQGTKVEIE
notes: VL of CK129 (CK4 lineage, synthetic library G); flexible linker between VL and VH; VH of CK129; Construct Aga2p-HA-(G4S)3-VL-linker-VH-c-myc; VL-VH orientation; not shown: Aga2p, N-terminal, kept; HA, N-terminal, kept; c-myc, C-terminal, kept
As usually defined, the Kd is a measure of binding affinity in units of concentration. Take B1: the values for the equilibrium dissociation constant (Kd) in experiment [1] and in [2] were 0.93 nM and 0.79 nM, respectively.

B2: SA129, mouse serum albumin fused to the CK129 single-chain variable antibody fragment (scFv, V domains shown)
VH: B1 VH
VL: B1 VL
notes: VL of CK129, as in m1; linker between VL and VH; the scFv was amplified from the pCT-CON vector; VH of CK129, as in m1; Construct SA-(G4S)3-scFv-G4S-His6; also called ^NSA-scFv^C; source: HEK293 (suspension-adapted), transient transfection, purified (Ni Sepharose excel, SEC); not shown: mouse serum albumin, N-terminal, kept; His6, C-terminal, kept
Regarding B2, in experiment [3], the Kd is approximately 2.5 nM. In addition, the binding result in experiment [4] is listed as “no binding (tested: up to 20 μM (methods))”.

B3: SA138, mouse serum albumin fused to the CK138 single-chain variable antibody fragment (scFv, V domains shown)
VH: EVQLVESDGGLVQPGGSLRLSCAASGFNLSYYGMHWVRQAPGKGLEWVAYIASYPGYTSYADSVKGRFTISADTSKNTAYLQMNSLRAEDTAVYYCARSGYSYSPYYSWFSAGMNYWGQGALVTVSS
VL: AIQMTRSPSSLSASVGDRVTITCRASQYHDGSAAWYQQKPGKAPKLLIYGASYLYSGVPSRFSGSRSGTDFTLTISSLQPEDFATYYCQQSSYSLITFGQGTKVEIK
notes: VL of CK138, as in m2; linker between VL and VH; the scFv was amplified from the pCT-CON vector; VH of CK138, as in m2; Construct SA-(G4S)3-scFv-G4S-His6; also called ^NSA-scFv^C; source: HEK293 (suspension-adapted), transient transfection, purified (Ni Sepharose excel, SEC); not shown: mouse serum albumin, N-terminal, kept; His6, C-terminal, kept
For the molecule B3, the binding result in experiment [5], in [6], in experiment [7], in experiment [8] and in experiment [4] was “binds” each time. The Kd in experiment [3] was approximately 100 nM.

B4: SA157*, separate mouse serum albumin fusions of the VL and VH domains of CK157 mixed in equimolar amounts (other)
VH: EVQLVESGGGLVQPGGSLRLSCAASGSNPYYYGGTHWVRQAPGEELEWVASIGSYPGYTDYADSVKGRFTISADTSKNTAYLQMNSLRAEDTAVYYCARHYYWYDATDYWGQGTLVTVSS
VL: DIQMTQSPSSLSASVGDRVTITCRASQSYGGVAWYQQKPGKAPKLLIYSASYLYSGVPSRFSGSRSGTDFTLTISSLQPEDFATYYCQQPSHLITFGQGTEVEIK
notes: VL of CK157, as in m3; VH of CK157, as in m3; Constructs SA-(G4S)3-VL-G4S-His6 and SA-(G4S)3-VH-G4S-His6; not a single chain with a linker; also called ^NSA-VL^C and ^NSA-VH^C; not shown: mouse serum albumin, N-terminal, kept; His6, C-terminal, kept
On to B4, for which the binding result in experiment [5] is “binds”. This molecule came in with a Kd in experiment [3] of approximately 1500 nM.

B5: CK157 single-chain variable antibody fragment, displayed on yeast (scFv, V domains shown)
VH: B4 VH
VL: B4 VL
notes: VL of CK157 (CK2 lineage, made by combinatorial site-directed mutagenesis); flexible linker between VL and VH; VH of CK157; Construct Aga2p-HA-(G4S)3-VL-linker-VH-c-myc; VL-VH orientation; not shown: Aga2p, N-terminal, kept; HA, N-terminal, kept; c-myc, C-terminal, kept
On to B5, for which the binding result in experiment [9], in experiment [10], in [11] and in [12] was “binds” in each case.
